EC50 and IC50 (read off the curve) data for three substances are collected here from patent publication US20250382354A1.

Assay [1] addresses SARS-CoV-2 S ectodomain, ancestral (S-2P) (SARS-CoV-2) (UniProt P0DTC2). The assay can be described thus: ELISA on coated S. A general note: In an ELISA, binding on a coated surface is turned into a signal by an enzyme label.
Assay [2] has the same target.
Assay [3] has the same target. The source holds these as a separate data set.
Assay [4] has as its target SARS-CoV-2 S Ancestral (S-2P ectodomain) (SARS-CoV-2 (ancestral)) (UniProt P0DTC2). In words: protein ELISA.

Where two headings read alike, the source gives them in different places.

In general, EC50 refers to the midpoint of the concentration-response curve. Substance S2P6 (antibody) returned a 50% effective concentration (EC50) in assay [1] of 0.0379 µg/mL.

Take CV3-25 (antibody): in assay [1], the EC50 is 0.0139 µg/mL.

With C121 (antibody), the IC50 (read off the curve) worked out at 1 µg/mL in assay [2] and 0.3 µg/mL in assay [3]. The substance also showed an EC50 in assay [4] of 0.0187 µg/mL.
